This note sets out measurements from patent US20080274978A1 (POSTECH FOUNDATION, published 2008).

Where no end group is shown, it is not given here. [ ]: non-standard residue; d: D form.

The chains are these.
T1: Formyl peptide receptor like 1 (FPRL1) (human, UniProt P25090 1-351)
T1 construct: whole, on cells; The endogenous receptor was tested on human neutrophils and macrophages
T1 sequence (looked up): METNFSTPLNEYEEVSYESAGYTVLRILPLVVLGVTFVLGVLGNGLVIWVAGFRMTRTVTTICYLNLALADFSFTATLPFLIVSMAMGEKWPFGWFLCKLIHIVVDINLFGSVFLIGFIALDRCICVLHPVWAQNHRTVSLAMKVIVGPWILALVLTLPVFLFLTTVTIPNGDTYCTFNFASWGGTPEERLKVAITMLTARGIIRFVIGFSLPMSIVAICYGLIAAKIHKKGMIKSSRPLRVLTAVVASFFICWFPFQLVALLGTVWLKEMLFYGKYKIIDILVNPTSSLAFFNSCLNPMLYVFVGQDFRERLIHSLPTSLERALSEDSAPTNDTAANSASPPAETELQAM

The target in the first assay is T1, Formyl peptide receptor like 1 (FPRL1). The assay can be described thus: displacement of 125I-WKYMVm (50 pM) from FPRL1-expressing RBL-2H3 cells. (In general: In a radioligand displacement assay an active substance lowers the binding of a labelled ligand.)
Experimental: Ligand binding analysis was performed as previously described (24). Briefly, FPR-expressing RBL-2H3 cells were seeded at 1×10⁵ cells per well into a 24 well plate and cultured overnight. […] The samples were then washed 5 times with ice-cold binding buffer, and 200 μl of lysis buffer (20 mM Tris, pH 7.5, 1% Triton X-100) was added to each well. After 20 min at room temperature, the lysates were collected and counted using a γ-ray counter (24).
In turn, RRWWWW-NH2 [Arg-Arg-Trp-Trp-Trp-Trp-CONH2 (RRWWWW, RRW^4)] gave an IC50 of 2400 nM.

WRWWWW-NH2 [Trp-Arg-Trp-Trp-Trp-Trp-CONH2 (WRWWWW, WRW^4)] gave an IC50 of 230 nM.

In the case of RHWWWW-NH2 [Arg-His-Trp-Trp-Trp-Trp-CONH2 (RHWWWW, RHW^4)], the IC50 amounted to 3200 nM.

In turn, DRWWWW-NH2 [Asp-Arg-Trp-Trp-Trp-Trp-CONH2 (DRWWWW, DRW^4)] displayed a concentration for half-maximal inhibition (IC50) of 3400 nM.

The target is the same in the next assay. Description: cell-based or functional assay.
Take WWWWMR: the “Ca^2+ (FPRL1) IC50” value stood at 5700 nM.

With WWWWWW, the “Ca^2+ (FPRL1) IC50” value is above 10000 nM.

Turning to WWWWW[dW] [WWWWWw], the “Ca^2+ (FPRL1) IC50” value is above 10000 nM.

For WRRWWW, the “Ca^2+ (FPRL1) IC50” value was above 10000 nM.

Regarding LWWWWW, the “Ca^2+ (FPRL1) IC50” value stood at 500 nM.

Turning to WWWWWR, the “Ca^2+ (FPRL1) IC50” value is 220 nM.

In the case of RWW[dW] [RWWw], the “Ca^2+ (FPRL1) IC50” value is above 10000 nM.

WWWW: the “Ca^2+ (FPRL1) IC50” value was 860 nM.

For WWWM, the “Ca^2+ (FPRL1) IC50” value came to 5900 nM.

On to WWW[dW] [WWWw], for which the “Ca^2+ (FPRL1) IC50” value was above 10000 nM.

As for WRWWWW-NH2 [Trp-Arg-Trp-Trp-Trp-Trp-CONH2 (WRWWWW, WRW^4)], the “Ca^2+ (FPRL1) IC50” value came out at 1000 nM.

As for WWRWWM, the “Ca^2+ (FPRL1) IC50” value turned out to be 83 nM.

For WRW, the “Ca^2+ (FPRL1) IC50” value is above 10000 nM.

In the case of WWRWWW, the “Ca^2+ (FPRL1) IC50” value was 58 nM.

As to [dW]WRWWM (not fully specified; printed as wWRWWM) [wWRWWM], the “Ca^2+ (FPRL1) IC50” value came out at 8.2 nM.

For the molecule WRWW, the “Ca^2+ (FPRL1) IC50” value was above 10000 nM.

On to RWWM, for which the “Ca^2+ (FPRL1) IC50” value is 650 nM.

Take LRWWWW: the “Ca^2+ (FPRL1) IC50” value was 1100 nM.

Consider WWWRWW, for which the “Ca^2+ (FPRL1) IC50” value amounted to 470 nM.

As to RWWW, the “Ca^2+ (FPRL1) IC50” value amounted to 600 nM.

For WWWWWM, the “Ca^2+ (FPRL1) IC50” value worked out at 130 nM.

Regarding [dW]WRWWW [wWRWWW], the “Ca^2+ (FPRL1) IC50” value amounted to 110 nM.

In the case of WWWWRW, the “Ca^2+ (FPRL1) IC50” value was determined as 2700 nM.

A further assay has the same target. Description: cell-based or functional assay. The source holds these as a separate data set.
Consider [dW]WRWWM (not fully specified; printed as wWRWWM) [wWRWWM], for which the “antagonistic activity on intracellular calcium concentration increase, relative to WRWWWW (SEQ ID NO:4)” value was around 100 times.

The term IC50 denotes the concentration that gives 50% inhibition. Lower therefore signals greater potency.
